Among the data in patent US20160130552A1 are decrease in long-duration monocyte-platelet interactions under flow values, retold here.

The experiment addresses RGD-recognizing receptors of monocytes. Kind of experiment: cell-based or functional assay.

On to RGDS [Small RGD peptides containing the amino-acid sequence Arg-Gly-Asp-Ser], for which the decrease in long-duration monocyte-platelet interactions under flow came out at 44%.
